Assay results reported in patent publication US20050164308A1, “Beta-lactamase CD4+ T-cell epitopes” (priority 2003, published 2005).

Columns and labels:
[1] = system: PBMCs; experiment: PBMC proliferation assay; type: cell-based, human; conditions: 26 donors
Experimental: The blood samples used in these experiments were the same as described above (i.e., before Example 1). The PBMCs were separated using Lymphoprep, as known in the art. The PBMCs were washed in PBS and counted using a Cell Dyn® 3700 blood analyzer (Abbott). The cell numbers and differentials were recorded. The PBMCs were resuspended to 4×10^6 cells/ml, in a solution of heat-inactivated human AB serum, RPMI 1640, pen/strep, glutamine, and 2-ME. Then, 2 mls per well were plated into 24-well plates. Two wells were used as no-enzyme controls. Then, the unmodified beta-lactamase and modified beta-lactamases were added to the wells at a concentrations of 10 ug/ml, 20 ug/ml, and 40 ug/ml. The epitope-modified beta-lactamases tested were K21A/S324A (designated as “pCD1.1”) and K21A/S324A/L149S (designated as “pCD08.3”). The K21A mutation corresponds to SEQ ID NO:10, while the S324A mutation corresponds to SEQ ID NO:48, and the L149S mutation corresponds to SEQ ID NO:84. The S324 variant is in epitope #107, while K21A is in epitope #6, and L149S is in epitope #49. […] These plates were incubated for 6 hours, the cells harvested and counted. […] SI values were calculated by dividing the average for each set of eight wells for each sample by the average CPM for the control well. The data were analyzed by creating a dataset representing the highest SI value achieved for each donor and each enzyme. […]

[2] = system: mouse splenocytes; experiment: Proliferative response of splenocytes from immunized mice to BLA peptides; type: in vivo, CB6F1 mice; conditions: mice immunized i.p. 20 μg in alum, days 1, 7, 15; tested day 19
Experimental: (§1) In this Example, experiments conducted to test the reduced immunogenicity of pCD1.1 in vivo are described. In these experiments, CB6F1 mice were immunized intraperitoneally with 20 μg of either wild-type BLA, or the CD1.1 protein in alum per mouse, as known in the art. Mice were immunized on days 1, 7, and 15 (i.e., d=1, d=7 and d=15). Splenocytes were tested for reactivity with BLA peptides on day 19. […] This response correlates with one of the human defined epitopes.

[3] = system: mouse splenocytes; experiment: Proliferative response of splenocytes from immunized mice to whole protein BLA or CD1.1; type: in vivo, CB6F1 mice; conditions: mice immunized with the labelled protein; restimulated with BLA or CD1.1
Experimental: as §1
Splenocytes from immunized mice were tested in vitro for their proliferative response to whole protein BLA or CD1.1. […] However, it is not intended that the present invention be limited to any particular mechanism.

[4] = system: BLA-specific IgG1 antibody; experiment: Antigen-specific ELISA on serum of thrice-immunized mice; type: in vivo, CB6F1 mice; conditions: BLA or CD1.1 as plate coating
Experimental: as §1
In addition, serum samples were taken from the thrice-immunized mice and an antigen-specific ELISA was performed (FIG. 16). Mice immunized with BLA produced robust levels of anti-BLA IgG1 antibody. […] ELISA assays were performed using both BLA and CD1.1 as the plate-coating reagent, with identical results.

B1: pCD1.1: epitope-modified beta-lactamase K21A/S324A (protein)
chain: TPVSEKQLAEVVANTITPLMAAQSVPGMAVAVIYQGKPHYYTFGKADIAANKPVTPQTLFELGSISKTFTGVLGGDAIARGEISLDDAVTRYWPQLTGKQWQGIRMLDLATYTAGGLPLQVPDEVTDNASLLRFYQNWQPQWKPGTTRLYANASIGLFGALAVKPSGMPYEQAMTTRVLKPLKLDHTWINVPKAEEAHYAWGYRDGKAVRVSPGMLDAQAYGVKTNVQDMANWVMANMAPENVADASLKQGIALAQSRYWRIGSMYQGLGWEMLNWPVEANTVVEGSDSKVALAPLPVAEVNPPAPPVKASWVHKTGSTGGFGAYVAFIPEKQIGIVMLANTSYPNPARVEAAYHILEALQ
**Q.** Which “average proliferative response (SI) compared to wild-type beta-lactamase” value ([1]; 10, 20, 40 ug/ml, highest SI per donor) does the source give for B1 here?
**A.** Its value is “less proliferation”.

**Q.** And the “percent of responders compared to wild-type beta-lactamase” value ([1]; responder if highest SI > 1.99)?
**A.** The value was “fewer donors”.

**Q.** And the “splenocyte proliferative response to the peptide 107 region” value [2]?
**A.** The value was “no longer responded”.

**Q.** And the “splenocyte proliferative response to the peptide 114 region” value [2]?
**A.** The value was “no longer responded”.

**Q.** What about the “in vitro proliferative response of immunized mouse splenocytes to whole protein” value [3] of the same molecule?
**A.** Its value is “unable to respond significantly”.

**Q.** And the “anti-BLA IgG1 antibody level” value [4]?
**A.** The value was “did not produce significant levels”.

B2: BLA: beta-lactamase precursor (cephalosporinase) from Enterobacter cloacae, GenBank Accession No. P05364, SEQ ID NO:1 (protein, listed as Enterobacter cloacae)
chain: TPVSEKQLAEVVANTITPLMKAQSVPGMAVAVIYQGKPHYYTFGKADIAANKPVTPQTLFELGSISKTFTGVLGGDAIARGEISLDDAVTRYWPQLTGKQWQGIRMLDLATYTAGGLPLQVPDEVTDNASLLRFYQNWQPQWKPGTTRLYANASIGLFGALAVKPSGMPYEQAMTTRVLKPLKLDHTWINVPKAEEAHYAWGYRDGKAVRVSPGMLDAQAYGVKTNVQDMANWVMANMAPENVADASLKQGIALAQSRYWRIGSMYQGLGWEMLNWPVEANTVVEGSDSKVALAPLPVAEVNPPAPPVKASWVHKTGSTGGFGSYVAFIPEKQIGIVMLANTSYPNPARVEAAYHILEALQ
**Q.** For B2, which “splenocyte proliferative response to the peptide 107 region” value [2] is on record?
**A.** Its value is “respond strongly”.

**Q.** And the “splenocyte proliferative response to the peptide 114 region” value [2]?
**A.** Its value is “Responses were also noted”.

**Q.** And the “in vitro proliferative response of immunized mouse splenocytes to whole protein” value [3]?
**A.** Its value is “increased”.

**Q.** What about the “anti-BLA IgG1 antibody level” value [4] of the same molecule?
**A.** The value was “robust levels”.
